Assay [1] has as its target TrkC (NIH-TrkC cells). Briefly: cell-based or functional assay.
Assay [2] addresses TrkC (NIH-TrkC cells). Nature of the assay: flow cytometry competition on NIH-TrkC cells; 20 nM Biotin-NT3 tracer, 200 nM unlabeled competitor; value is the Biotin-NT3 signal remaining. For orientation: A flow cytometer gives signals particle by particle.
Assay [3] deals with TrkA (NIH-TrkA cells). Briefly: flow cytometry competition on NIH-TrkA cells; 20 nM Biotin-NT3 tracer, 3-fold excess unlabeled competitor; value is the Biotin-NT3 binding remaining.
Assay [4] has as its target TrkA (NIH-TrkA cells). Briefly: flow cytometry competition on NIH-TrkA cells; 20 nM Biotin-NT3 tracer, 3-fold excess unlabeled competitor; value is the Biotin-NT3 signal remaining.
The target in assay [5] is TrkC (NIH-TrkC cells). Nature of the assay: flow cytometry competition on NIH-TrkC cells; 20 nM Biotin-NT3 tracer, 200 nM unlabeled competitor; value is the Biotin-NT3 binding remaining.
Assay [6] addresses TrkC (NIH-TrkC cells). Nature of the assay: flow cytometry (fluorescent avidin) on NIH-TrkC cells; 20 nM Biotin-NT3, no competitor.
Assay [7] deals with TrkA (NIH-TrkA cells). Nature of the assay: flow cytometry (fluorescent avidin) on NIH-TrkA cells; 20 nM Biotin-NT3, no competitor.
In assay [8] the target is p75 (NIH-p75 cells). Briefly: flow cytometry (fluorescent avidin) on NIH-p75 cells; 20 nM Biotin-NT3, no competitor.
Assay [9] concerns the target p75 (NIH-p75 cells). Briefly: flow cytometry competition on NIH-p75 cells; 20 nM Biotin-NT3 tracer, 200 nM unlabeled competitor; value is the Biotin-NT3 signal remaining.
Assay [10] has as its target p75 (NIH-p75 cells). Briefly: flow cytometry competition on NIH-p75 cells; 20 nM Biotin-NT3 tracer, 200 nM unlabeled competitor; value is the Biotin-NT3 binding remaining.

B1: Wild type NT-3 (Neurotrophin 3, mature form) (ligand)
chain: YAEHKSHRGEYSVCDSESLWVTDKSSAIDIRGHQVTVLGEIKTGNSPVKQYFYETRCKEARPVKNGCRGIDDKHWNSQCKTSQTYVRALTSENNKLVGWRWIRIDTSCVCALSRKIGRT
Take B1: the % survival at 0.1 nM, TrkC-expressing cells in serum free media with TrkC (NIH-TrkC cells) [1] stood at 34%. In addition, the NIH-TrkC MCF with TrkC (NIH-TrkC cells) [2] amounted to 25. The molecule further returned a % of maximal binding to TrkA with TrkA (NIH-TrkA cells) [3] of 36%. The NIH-TrkA MCF with TrkA (NIH-TrkA cells) [4] is 20. Moreover, in the assay with TrkC (NIH-TrkC cells) [5], the % of maximal binding to TrkC turned out to be 18%.

B2: Biotin-NT-3 (wild type NT-3 covalently linked to biotin) (ligand)
chain: YAEHKSHRGEYSVCDSESLWVTDKSSAIDIRGHQVTVLGEIKTGNSPVKQYFYETRCKEARPVKNGCRGIDDKHWNSQCKTSQTYVRALTSENNKLVGWRWIRIDTSCVCALSRKIGRT
modifications: biotin, site not given
As to B2, the NIH-TrkC MCF in the assay with TrkC (NIH-TrkC cells) [6] is 93. The molecule also displayed an NIH-TrkA MCF with TrkA (NIH-TrkA cells) [7] of 38. The molecule also came in with an NIH-p75 MCF with p75 (NIH-p75 cells) [8] of 76.

B3: NT-3 mutant (SEQ ID NO: 23) (ligand)
chain: YAEHKSHRGEYSVCASESLWVTDKSSAIDIRGHQVTVLGEIKTGNSPVKQYFYETRCKEARPVKNGCRGIDDKHWNSQCKTSQTYVRALTSENNKLVGWRWIRIDTSCVCALSAAIGRT
As to B3, the NIH-p75 MCF in the assay with p75 (NIH-p75 cells) [9] amounted to 69. In addition, the NIH-TrkA MCF with TrkA (NIH-TrkA cells) [4] amounted to 16. Further, in the assay with p75 (NIH-p75 cells) [10], the % of maximal binding to p75 was found to be 89%. In the assay with TrkC (NIH-TrkC cells) [5], this molecule came in with a % of maximal binding to TrkC of 13%.

(Values after patent US20190374606A1.)
